T1: PratA (Synechocystis sp. PCC 6803, UniProt P73091 39-383)
T1 sequence: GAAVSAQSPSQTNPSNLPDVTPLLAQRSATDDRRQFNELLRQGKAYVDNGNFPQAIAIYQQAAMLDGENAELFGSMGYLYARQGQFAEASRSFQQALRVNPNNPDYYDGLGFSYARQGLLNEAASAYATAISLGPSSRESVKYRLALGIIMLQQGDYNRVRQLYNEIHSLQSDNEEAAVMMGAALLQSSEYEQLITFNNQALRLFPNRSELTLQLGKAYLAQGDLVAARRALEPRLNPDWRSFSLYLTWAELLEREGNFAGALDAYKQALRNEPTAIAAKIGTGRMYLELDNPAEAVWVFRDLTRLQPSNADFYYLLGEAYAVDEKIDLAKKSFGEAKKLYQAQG


What was measured:
Experiment in all cases: MST
DLA2 ΔLip = DLA2 ΔLip (Chlamydomonas reinhardtii, UniProt A0A2K3DW88 116-494)
PratA = biological target: T1, PratA
DLA2 WT (MST) = DLA2 WT (MST) (Chlamydomonas reinhardtii, UniProt A0A2K3DW88 32-494)
DLA2 ΔCat = DLA2 ΔCat (Chlamydomonas reinhardtii, UniProt A0A2K3DW88 32-269)
DLA2 ΔCat 394 = DLA2 ΔCat 394 (Chlamydomonas reinhardtii, UniProt A0A2K3DW88 32-393)
DLA2 ΔCat 315 = DLA2 ΔCat 315 (Chlamydomonas reinhardtii, UniProt A0A2K3DW88 32-314)
DLA2 ΔE3B = DLA2 ΔE3B (Chlamydomonas reinhardtii, UniProt A0A2K3DW88 32-184+=VD+224-494, internal_change)
DLA2 ΔCat 462 = DLA2 ΔCat 462 (Chlamydomonas reinhardtii, UniProt A0A2K3DW88 32-461)
DLA2 ΔCat 450 = DLA2 ΔCat 450 (Chlamydomonas reinhardtii, UniProt A0A2K3DW88 32-449)

Binder | Kd (DLA2 ΔLip) | binding result (PratA) | Kd (DLA2 WT (MST)) | Kd (DLA2 ΔCat) | Kd (DLA2 ΔCat 394) | Kd (DLA2 ΔCat 315) | Kd (DLA2 ΔE3B) | Kd (DLA2 ΔCat 462) | Kd (DLA2 ΔCat 450)
UUUACGGAGAAAUUAAAACUUUAAAAAAAUUAACAUAUGACCAUGGAUC (ssRNA) [psbA 5'-UTR probe native] | 107 ± 20 nM | no binding | 106 ± 24 nM | 911 ± 60 nM | 558 ± 77 nM | 607 ± 82 nM | 241 ± 21 nM | 427 ± 55 nM | 466 ± 65 nM
UUUACGGAGAAAUUAAAACUUUCCCCCCCCCCCCAUAUGACCAUGGAUC (ssRNA) [psbA 5'-UTR C-stretch probe] |  |  | 248 ± 54 nM |  |  |  | 244 ± 43 nM | 625 ± 75 nM | 
